Measurements from patent US20240279288A1, “APPLICATION OF PLANT JAZ PROTEINS AND DERIVED POLYPEPTIDES IN PREVENTION AND TREATMENT OF HUMAN AND ANIMAL TUMORS” (ANYANG INSTITUTE OF SINO-COTTON INDUSTRY INNOVATION, priority 2021, published 2024).

Target: T1, NMYC (Homo sapiens, UniProt P04198)
T1 construct: with the full length of c-Myc and NMYC, respectively; expressed in transfected cells; host or cells: yeast Y2HGold
T1 sequence (P04198 1-464): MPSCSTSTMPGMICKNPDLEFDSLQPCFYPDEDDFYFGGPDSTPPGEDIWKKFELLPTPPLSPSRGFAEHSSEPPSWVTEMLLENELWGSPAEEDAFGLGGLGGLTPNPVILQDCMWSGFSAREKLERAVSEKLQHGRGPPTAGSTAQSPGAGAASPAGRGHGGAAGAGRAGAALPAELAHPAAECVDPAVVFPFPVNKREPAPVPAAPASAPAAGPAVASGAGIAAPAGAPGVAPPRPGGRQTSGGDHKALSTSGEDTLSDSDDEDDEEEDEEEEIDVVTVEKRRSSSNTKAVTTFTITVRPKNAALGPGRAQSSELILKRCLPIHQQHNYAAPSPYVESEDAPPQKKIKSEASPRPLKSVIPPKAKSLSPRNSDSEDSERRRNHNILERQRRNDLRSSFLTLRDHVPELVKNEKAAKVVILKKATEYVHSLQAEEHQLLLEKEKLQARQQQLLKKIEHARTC
Experiment: Yeast two hybrid with NMYC
Assay type: binding
Source text: […]

B1: GhJAZ1: cotton JAZ1 protein, gene number Gh_A05G0260, sequence SEQ ID No. 4; prokaryotically expressed with His tag, about 30 KD (protein)
chain: MSSCSESTAMKPARSPEKPSFAQTCNLLSQYLKEKGSFGDLSLGMTCNVEANGTPVVPPPTMNLFPLNDKSDDVCGRNGGNPKNLTSMDLFPQQAGLASKDDSPNKLEPQTAPMTIFYGGQVIVFNDFPANKAKEIMLLASNSSSQSNNSFNPIPFTSSIARSPIESSIGVPPTSKPVHPAQRAVPGDLPIARRASLHRFLEKRKDRITAKAPYQINNSAAAPSLSGDNKSWLGLAAQSP
modifications: His tag
notes: prokaryotically expressed with His tag, about 30 KD
interaction with NMYC: interacted
